{
  "source": "patent US20110027820A1",
  "about": "(GEORGIA TECH RESEARCH, published 2011)",
  "binders": {"B1": {"name": "Gal4 activation domain (GAD) without a coactivator domain (other, yeast, UniProt P04386 768-881, looked up)", "chain": "ANFNQSGNIADSSLSFTFTNSSNGPNLITTQTNSQALSQPIASSNVHDNFMNNEITASKIDDGNNSKPLSPGWTDQTAYNAFGITTGMFNTTTMDDVYNYLFDDEDTPPNPKKE", "notes": "range 768-881; Control expressed from pGAD10; also called Gal4 AD only; product of pGAD10"}},
  "target": "T1, Gal4 DNA binding domain (DBD) fused to the RXR ligand binding domain (GBD:RXR) (yeast; human, UniProt P04386 1-147; P19793 203-462, limits assumed)",
  "T1 construct": "Expressed inside yeast (PJ69-4A or MaV103) from plasmid pGBDRXR; The order DBD then LBD follows the name GBD:RXR; also called wild-type GBD:RXR; product of pGBDRXR",
  "test": "yeast two-hybrid type growth selection (chemical complementation), PJ69-4A on SC-Ade plates with 10^-5 M 9cRA",
  "method": "The same colony was used for streaking on all the plates, ending with a SC plate to confirm efficient transfer of the cells to each plate. Both selective and non-selective plates were incubated at 30° C. for two days. Each set of genetic selection plates was replicated at least once.",
  "data": [
    {"binder": "B1", "values": [
      {"measurement": "binding result", "value": "no binding"}
    ]}
  ]
}
